Among the data in PMC10448178 are binding values, retold here.

The first series has as its target T1, AhrC (Bacillus subtilis) (UniProt P17893).
T1 sequence: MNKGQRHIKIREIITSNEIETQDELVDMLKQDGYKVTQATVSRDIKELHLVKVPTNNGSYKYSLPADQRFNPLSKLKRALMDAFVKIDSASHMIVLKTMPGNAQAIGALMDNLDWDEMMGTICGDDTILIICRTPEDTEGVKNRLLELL
Description: EMSA. The note with it: 10 mM Tris-HCl pH 7.5, 43 mM NaCl, 1 mM MnCl2, 1 mM DTT, 5% glycerol, 1 ug poly[dI-dC] per 14 ul, 23 C 15 min; 5% PAGE in 40 mM Tris-acetate at 4 C. For orientation: A gel shift assay detects complexes by their altered migration in electrophoresis.
In the case of “CCGAAGCTTTCTCCTAAATCACAGTTTAAATCAATCTGAAACACAGAATCCCTCCTGCCAAAGCAAACGATATGCTTTATGTCATTTATTGTCCCGAAATTCGGAACGACTATTCCGAATTTTTGAACTTTATTTCATTATAAGTGAATCATATCAGTTTGTGAAATACTTTTGTCAGAAAACCTACCATGGTCCCAGAATAAAACCTGCCAAACTAAAAAAGAGAGTCCATCTTAGGACTCTGAATTCGAT (double strand) [PpxpA probe 2]”, the binding entry is on record as “binds”.
Still for that read-out and setting: in the case of “CCGAAGCTTTCTCCTAAATCACAGTTTAAATCAATCTGAAACACAGAATCCCTCCTGCCAAAGCAAACGATATGCTTTATGTCATTTATTGTCCCGAAATTCGGAACGACTATTCCGAATTTTTGAACTTTATTTCATTATAAGTGAATCATATCAGTTTGTGAAATACTTTTGTCAGAAAACCTACCATGGTCCCAGAATAAAACCTGCCAAACTAAAGAATTCGAT (double strand) [PpxpA probe 3]” it was “binds more weakly”; in that of “GCGCTTTCAGCGAATGTGTGGAAAAAATGTTTCGTTTTTTATTCGCTGTGTGATTTTGCGTAATATTTACAATTCGATAGAATGCGAGAAGCACTGGTGTCCTTGGGTTTGATGGGATTTTTGGCGGAGCAAATAAATTGGATGAGAGAAAAAGTGTTCCTTCGTCACTATTTTTCTGTGGCGGGTGAATCATGTTTCTGTAGACCCACTGCGGATCAGCTTTGTAAGATAATAATAGGAAAATGTGAGCGAGAGGAGGTTTTGTATGGAGAGATATGATGAACTG (double strand) [PmneS]”, “binds”; in that of “TTTAGTTTGGCAGGTTTTATTCTGGGACCATGGTAGGTTTTCTGACAAAAGTATTTCACAAACTGATATGATTCACTTATAATGAAATAAAGTTCAAAAATTCGGAAGCTTCCG (double strand) [PpxpA probe 5]”, “binds more weakly”.

The target in a further series is T2, MntR (Bacillus subtilis) (UniProt P54512).
T2 sequence: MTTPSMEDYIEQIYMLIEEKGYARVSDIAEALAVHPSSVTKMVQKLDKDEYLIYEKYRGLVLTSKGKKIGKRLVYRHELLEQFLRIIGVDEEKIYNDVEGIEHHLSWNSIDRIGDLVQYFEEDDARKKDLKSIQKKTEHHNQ
Description: EMSA. The note with it: 10 mM Tris-HCl pH 7.5, 43 mM NaCl, 1 mM MnCl2, 1 mM DTT, 5% glycerol, 1 ug poly[dI-dC] per 14 ul, 23 C 15 min; 5% PAGE in 40 mM Tris-acetate at 4 C.
As to “ATGAAGCTTCAAAGAGTTTCCTTAAGGCAAATTATTTTATCTACATCATATGACCATCCCGGTTTCTTGTCAACCGAAAATGTTCAAAATACACTTCTGAATTTTTCCCTGTTATGTAACATGATATGTAGGGATTCGTGATAAGGTCCCATATAAAAAGACATCGTTTCATTTCGAAACGATGCCTCCTGTATCTAATGAGTCTAGGCTTCCTTCCGCAGCCCGCGGAATATAAGGCCCAGCAAGAACACGAAGATGGCTGCCCCGATGATGGCCGGGA (double strand) [PmntH del1]”, the binding entry was “binds”.
On to “ATGAAGCTTTTATCTACATCATATGACCATCCCGGTTTCTTGTCAACCGAAAATGTTCAAAATACACTTCTGAATTTTTCCCTGTTATGTAACATGATATGTAGGGATTCGTGATAAGGTCCCATATAAAAAGACATCGTTTCATTTCGAAACGATGCCTCCTGTATCTAATGAGTCTAGGCTTCCTTCCGCAGCCCGCGGAATATAAGGCCCAGCAAGAACACGAAGATGGCTGCCCCGATGATGGCCGGGA (double strand) [PmntH del2]”, for which the binding entry is given as “no binding”.
